Where two headings read alike, the source gives them in different places.

The target of the series is T1, PhoB~P (phosphorylated response regulator PhoB) (Escherichia coli) (UniProt P0AFJ5).
T1 sequence: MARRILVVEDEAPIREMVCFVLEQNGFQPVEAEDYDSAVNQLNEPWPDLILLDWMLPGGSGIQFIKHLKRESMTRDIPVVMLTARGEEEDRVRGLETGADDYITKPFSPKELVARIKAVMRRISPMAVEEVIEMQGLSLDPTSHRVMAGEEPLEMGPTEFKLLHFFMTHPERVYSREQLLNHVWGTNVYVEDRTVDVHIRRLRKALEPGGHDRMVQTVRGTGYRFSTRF
The series can be described thus: EMSA. (In EMSA bound probe runs differently from free probe, usually more slowly.)

Regarding “ATCACATGGTCCTGCTGGAGTTCGTGACCGCCGCCGGGATCACTCTCGGCATGGACGAGCTGTACAAGTAGCTGACCCGGGGAGGGTCGTTCTGTCATAAAACTGTCATATTCCACCGGGAAGGCTTGAGCTCCTAGATACATTCAAATATGTATCCGCTCATGAGACAATAACCCTGATA (double strand) [Decoy DNA (1 PhoB consensus site)]”, the Kd (as a rule, the equilibrium constant for the complex coming apart) amounted to 200 nM.

With phnC promoter PhoB site DNA, the dissociation constant (Kd) (cited from earlier work) was 1500 nM.

The values are drawn from paper PMC8599769.
